Assay results taken from the supplement of paper PMC10065799, “High-throughput profiling of sequence recognition by tyrosine kinases and SH2 domains using bacterial peptide display” (eLife, 2023).

Legend:
AncSZ = experiment: phosphorylation enrichment, bacterial display (enrichment ratio); higher = better substrate or ligand; peptides without Tyr show the background
EPHB1 = EPHB1 (UniProt P54762); experiment: as above
EPHB2 = EPHB2 (UniProt P29323); experiment: as above
FGFR1 = FGFR1 (UniProt P11362); experiment: as above
FGFR3 = FGFR3 (UniProt P22607); experiment: as above
Fer (mouse) = experiment: as above
Fes = Fes (UniProt P07332); experiment: as above
Fyn = Fyn (UniProt P06241); experiment: as above
Hck = Hck (UniProt P08631); experiment: as above
Jak2 = Jak2 (UniProt O60674); experiment: as above
MERTK = MERTK (UniProt Q12866); experiment: as above
c-Abl (mouse) = experiment: as above
c-Src = experiment: as above
Grb2 SH2 = Grb2 SH2 (UniProt P62993); experiment: SH2 binding enrichment of the phosphorylated peptide, bacterial display (enrichment ratio); higher = better substrate or ligand; peptides without Tyr show the background
SHP2-C SH2 = experiment: as above
c-Src SH2 = experiment: as above
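For SH2 binding enrichment of the phosphorylated peptide, bacterial display in this document: peptide library displayed on the E. coli surface as eCPX fusions, selected cells deep-sequenced, score is each peptide's frequency after selection divided by its frequency in the input.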
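For phosphorylation enrichment, bacterial display in this document: 11-residue human phosphosite peptides and single-mutation variants displayed on the E. coli surface, counted by deep sequencing, each peptide's frequency after selection divided by its frequency in the unselected input library; frequency after pTyr selection over input frequency; kinase dosed for 20-30% of maximal phosphorylation in three min.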

Sequence of Hck (P08631 whole entry, looked up): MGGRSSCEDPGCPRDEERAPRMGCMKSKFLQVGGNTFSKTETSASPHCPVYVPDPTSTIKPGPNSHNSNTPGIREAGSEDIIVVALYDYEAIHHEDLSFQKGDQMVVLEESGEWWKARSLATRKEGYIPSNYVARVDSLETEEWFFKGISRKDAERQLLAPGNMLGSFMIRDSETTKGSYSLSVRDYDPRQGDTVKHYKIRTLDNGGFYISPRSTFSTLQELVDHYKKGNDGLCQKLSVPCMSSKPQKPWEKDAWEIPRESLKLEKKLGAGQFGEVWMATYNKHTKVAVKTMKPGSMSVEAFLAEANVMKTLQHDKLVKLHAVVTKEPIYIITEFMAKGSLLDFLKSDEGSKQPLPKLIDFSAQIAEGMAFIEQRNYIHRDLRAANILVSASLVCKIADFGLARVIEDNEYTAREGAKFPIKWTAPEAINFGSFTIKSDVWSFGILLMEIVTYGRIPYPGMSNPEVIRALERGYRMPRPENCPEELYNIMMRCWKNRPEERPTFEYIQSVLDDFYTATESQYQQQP
Sequence of EPHB2 (P29323 whole entry, looked up): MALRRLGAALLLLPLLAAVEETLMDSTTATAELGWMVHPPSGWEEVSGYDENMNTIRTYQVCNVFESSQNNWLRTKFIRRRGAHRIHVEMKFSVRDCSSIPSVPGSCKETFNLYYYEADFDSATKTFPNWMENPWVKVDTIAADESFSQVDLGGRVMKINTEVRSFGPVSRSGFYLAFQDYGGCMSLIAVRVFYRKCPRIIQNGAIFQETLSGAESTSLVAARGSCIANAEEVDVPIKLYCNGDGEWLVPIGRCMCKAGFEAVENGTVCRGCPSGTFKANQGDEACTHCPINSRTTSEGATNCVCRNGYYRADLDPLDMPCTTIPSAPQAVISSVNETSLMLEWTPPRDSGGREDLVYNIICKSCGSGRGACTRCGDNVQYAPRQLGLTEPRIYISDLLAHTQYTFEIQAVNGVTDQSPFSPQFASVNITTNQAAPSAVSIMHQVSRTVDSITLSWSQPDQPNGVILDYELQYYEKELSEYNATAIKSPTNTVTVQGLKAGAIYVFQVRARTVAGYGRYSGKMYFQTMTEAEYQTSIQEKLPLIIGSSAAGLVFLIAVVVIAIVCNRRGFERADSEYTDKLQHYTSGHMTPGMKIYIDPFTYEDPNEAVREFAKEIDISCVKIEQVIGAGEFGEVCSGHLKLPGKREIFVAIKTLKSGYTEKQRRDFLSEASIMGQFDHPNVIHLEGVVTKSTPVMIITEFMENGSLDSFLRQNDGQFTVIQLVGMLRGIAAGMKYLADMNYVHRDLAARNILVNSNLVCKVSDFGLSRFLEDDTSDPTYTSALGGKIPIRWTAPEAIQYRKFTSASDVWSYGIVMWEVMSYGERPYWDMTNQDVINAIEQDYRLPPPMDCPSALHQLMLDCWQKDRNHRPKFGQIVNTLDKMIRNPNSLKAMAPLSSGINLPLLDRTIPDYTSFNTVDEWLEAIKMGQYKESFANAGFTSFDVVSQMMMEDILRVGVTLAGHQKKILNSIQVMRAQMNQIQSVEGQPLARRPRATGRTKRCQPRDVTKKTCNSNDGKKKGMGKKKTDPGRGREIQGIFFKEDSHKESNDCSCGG
Sequence of EPHB1 (P54762 whole entry, looked up): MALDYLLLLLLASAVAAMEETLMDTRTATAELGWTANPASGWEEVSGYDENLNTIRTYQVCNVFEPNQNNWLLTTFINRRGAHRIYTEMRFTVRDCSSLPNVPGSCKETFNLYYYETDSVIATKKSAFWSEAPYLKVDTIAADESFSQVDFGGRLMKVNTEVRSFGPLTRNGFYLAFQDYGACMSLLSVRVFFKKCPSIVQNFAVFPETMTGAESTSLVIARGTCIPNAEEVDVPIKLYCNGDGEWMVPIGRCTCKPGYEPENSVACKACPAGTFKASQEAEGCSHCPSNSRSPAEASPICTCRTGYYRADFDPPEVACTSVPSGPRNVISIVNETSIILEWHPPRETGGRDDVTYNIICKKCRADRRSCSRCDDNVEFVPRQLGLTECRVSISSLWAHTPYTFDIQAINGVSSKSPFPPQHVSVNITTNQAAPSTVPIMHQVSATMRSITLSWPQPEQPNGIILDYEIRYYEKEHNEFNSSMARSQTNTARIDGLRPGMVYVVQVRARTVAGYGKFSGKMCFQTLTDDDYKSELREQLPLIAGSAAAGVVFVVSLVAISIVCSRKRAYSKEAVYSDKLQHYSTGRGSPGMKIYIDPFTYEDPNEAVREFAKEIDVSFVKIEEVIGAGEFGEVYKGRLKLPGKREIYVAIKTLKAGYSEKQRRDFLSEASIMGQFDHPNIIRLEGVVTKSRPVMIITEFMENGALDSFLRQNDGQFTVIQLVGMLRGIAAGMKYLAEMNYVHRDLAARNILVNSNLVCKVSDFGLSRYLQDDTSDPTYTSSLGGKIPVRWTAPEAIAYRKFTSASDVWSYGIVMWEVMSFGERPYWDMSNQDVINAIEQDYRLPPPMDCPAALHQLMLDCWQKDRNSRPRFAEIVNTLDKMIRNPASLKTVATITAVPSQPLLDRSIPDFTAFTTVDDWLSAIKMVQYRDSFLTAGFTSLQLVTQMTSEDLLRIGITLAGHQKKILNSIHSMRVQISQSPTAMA
Sequence of Jak2 (O60674 whole entry, looked up): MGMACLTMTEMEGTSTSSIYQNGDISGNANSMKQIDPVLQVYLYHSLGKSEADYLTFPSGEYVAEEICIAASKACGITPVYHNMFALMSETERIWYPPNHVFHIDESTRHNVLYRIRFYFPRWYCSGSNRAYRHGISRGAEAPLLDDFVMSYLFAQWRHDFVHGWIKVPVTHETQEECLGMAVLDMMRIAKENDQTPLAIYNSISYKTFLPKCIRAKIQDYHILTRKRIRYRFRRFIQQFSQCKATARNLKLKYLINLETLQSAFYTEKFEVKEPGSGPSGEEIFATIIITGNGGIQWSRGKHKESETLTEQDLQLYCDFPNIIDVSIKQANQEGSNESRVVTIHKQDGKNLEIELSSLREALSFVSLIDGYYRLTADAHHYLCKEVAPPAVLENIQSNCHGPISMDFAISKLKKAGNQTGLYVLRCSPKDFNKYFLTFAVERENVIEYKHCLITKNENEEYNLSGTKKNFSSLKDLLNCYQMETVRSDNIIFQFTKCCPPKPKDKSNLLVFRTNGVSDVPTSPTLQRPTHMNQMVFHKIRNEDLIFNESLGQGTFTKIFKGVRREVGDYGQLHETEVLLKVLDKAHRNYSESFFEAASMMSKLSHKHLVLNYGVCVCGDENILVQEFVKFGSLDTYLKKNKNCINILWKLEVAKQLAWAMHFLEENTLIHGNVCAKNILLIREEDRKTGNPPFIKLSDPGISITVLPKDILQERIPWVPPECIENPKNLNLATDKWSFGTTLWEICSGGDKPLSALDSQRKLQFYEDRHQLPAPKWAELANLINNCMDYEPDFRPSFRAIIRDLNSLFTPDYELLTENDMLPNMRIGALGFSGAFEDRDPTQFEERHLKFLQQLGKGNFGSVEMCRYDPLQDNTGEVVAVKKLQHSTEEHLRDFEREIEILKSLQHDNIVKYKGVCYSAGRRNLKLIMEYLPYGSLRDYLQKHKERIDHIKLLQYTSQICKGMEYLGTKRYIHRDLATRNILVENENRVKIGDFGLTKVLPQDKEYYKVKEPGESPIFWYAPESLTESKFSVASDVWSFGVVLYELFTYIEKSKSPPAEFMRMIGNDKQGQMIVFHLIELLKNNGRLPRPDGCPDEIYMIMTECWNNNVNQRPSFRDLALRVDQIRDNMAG
Sequence of Fyn (P06241 whole entry, looked up): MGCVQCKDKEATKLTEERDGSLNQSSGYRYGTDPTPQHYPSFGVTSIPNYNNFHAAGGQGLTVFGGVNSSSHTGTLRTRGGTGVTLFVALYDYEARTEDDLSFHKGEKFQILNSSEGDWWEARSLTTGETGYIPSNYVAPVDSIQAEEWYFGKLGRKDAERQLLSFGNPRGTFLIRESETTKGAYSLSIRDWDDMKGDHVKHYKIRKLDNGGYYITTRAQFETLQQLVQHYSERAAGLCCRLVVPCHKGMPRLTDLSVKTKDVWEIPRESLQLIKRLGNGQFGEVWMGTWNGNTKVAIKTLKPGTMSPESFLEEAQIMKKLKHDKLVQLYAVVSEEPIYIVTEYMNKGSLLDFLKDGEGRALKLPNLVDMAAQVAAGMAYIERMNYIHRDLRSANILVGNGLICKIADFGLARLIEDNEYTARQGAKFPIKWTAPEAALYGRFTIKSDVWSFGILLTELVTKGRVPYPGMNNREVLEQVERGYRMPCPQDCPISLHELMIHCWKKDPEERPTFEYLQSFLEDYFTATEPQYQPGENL
Sequence of Fes (P07332 whole entry, looked up): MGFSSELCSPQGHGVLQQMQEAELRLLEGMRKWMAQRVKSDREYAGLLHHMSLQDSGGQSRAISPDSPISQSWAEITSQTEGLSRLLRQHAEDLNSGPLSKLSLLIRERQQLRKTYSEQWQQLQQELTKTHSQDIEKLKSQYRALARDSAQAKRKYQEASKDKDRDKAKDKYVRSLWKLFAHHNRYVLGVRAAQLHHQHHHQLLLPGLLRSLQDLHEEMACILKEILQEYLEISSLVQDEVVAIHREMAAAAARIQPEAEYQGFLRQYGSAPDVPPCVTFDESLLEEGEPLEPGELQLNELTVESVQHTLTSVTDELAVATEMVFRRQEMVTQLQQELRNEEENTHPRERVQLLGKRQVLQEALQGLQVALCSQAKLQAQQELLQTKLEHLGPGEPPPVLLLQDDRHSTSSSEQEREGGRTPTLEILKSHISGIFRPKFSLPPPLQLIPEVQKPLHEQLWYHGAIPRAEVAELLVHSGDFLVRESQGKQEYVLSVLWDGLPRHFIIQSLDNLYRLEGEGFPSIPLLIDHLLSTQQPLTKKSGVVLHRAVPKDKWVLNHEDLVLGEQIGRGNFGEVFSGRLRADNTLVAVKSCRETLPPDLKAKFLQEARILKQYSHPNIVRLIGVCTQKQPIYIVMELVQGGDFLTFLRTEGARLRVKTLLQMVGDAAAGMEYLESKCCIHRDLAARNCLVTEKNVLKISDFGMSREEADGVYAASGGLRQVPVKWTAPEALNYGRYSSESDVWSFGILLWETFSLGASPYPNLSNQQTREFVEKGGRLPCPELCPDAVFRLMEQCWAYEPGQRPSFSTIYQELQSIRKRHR

Row | Sequence | SH2 binding enrichment (Grb2 SH2) | SH2 binding enrichment (SHP2-C SH2) | SH2 binding enrichment (c-Src SH2) | phosphorylation enrichment (AncSZ) | phosphorylation enrichment (EPHB1) | phosphorylation enrichment (EPHB2) | phosphorylation enrichment (FGFR1) | phosphorylation enrichment (FGFR3) | phosphorylation enrichment (Fer (mouse)) | phosphorylation enrichment (Fes) | phosphorylation enrichment (Fyn) | phosphorylation enrichment (Hck) | phosphorylation enrichment (Jak2) | phosphorylation enrichment (MERTK) | phosphorylation enrichment (c-Abl (mouse)) | phosphorylation enrichment (c-Src)
1 | YIIFIYAMKKK [SLCO1B1_Y645_L643F] | 2.31 | 1.68 | 1.23 | 0.602 | 0.273 | 0.239 | 0.655 | 0.507 | 0.433 | 0.536 | 0.343 | 0.473 | 0.545 | 0.849 | 0.465 | 0.287
2 | FGPPQYNMQFS [ERBB2IP_Y977_I979M_YF] | 0.932 | 0.653 | 0.529 | 0.64 | 0.414 | 0.427 | 0.448 | 0.452 | 0.306 | 0.679 | 0.456 | 0.52 | 0.49 | 0.376 | 0.383 | 0.372
3 | ATGGFYSFGGG [KRT24_Y120_YF] | 0.749 | 0.569 | 0.425 | 0.678 | 0.7 | 0.499 | 0.481 | 0.502 | 2.46 | 0.953 | 3.93 | 1.83 | 0.706 | 7.38 | 0.562 | 1.83
4 | LESETYRRLLD [KRT12_Y429_I426S] | 0.915 | 0.911 | 0.429 | 1.44 | 0.75 | 0.836 | 0.784 | 1.02 | 0.708 | 1.66 | 0.684 | 0.697 | 1.07 | 0.664 | 0.778 | 0.517
5 | SHISGYAALRR [RAPH1_Y1226_T1228A] | 0.56 | 0.51 | 0.318 | 0.836 | 0.328 | 0.476 | 0.361 | 0.554 | 0.432 | 1.04 | 0.494 | 0.431 | 0.561 | 0.446 | 0.726 | 0.44
6 | RKTAKYLLKGE [CDH5_Y82_N79T] | 0.861 | 0.709 | 0.461 | 0.71 | 0.915 | 0.54 | 1.04 | 0.704 | 0.878 | 0.644 | 0.598 | 0.672 | 0.628 | 0.832 | 1.1 | 0.535
7 | NLFIEYPTGSG [IRF2BPL_Y423_K418N] | 0.681 | 0.551 | 0.399 | 1.14 | 0.504 | 0.548 | 0.582 | 0.7 | 0.639 | 1.02 | 0.568 | 0.497 | 0.828 | 0.519 | 0.95 | 0.56
8 | GKSHIYFWTLD [EML2_Y230_E235D] | 0.703 | 0.712 | 0.387 | 1.17 | 0.622 | 0.523 | 1.07 | 1.1 | 0.508 | 1.21 | 0.514 | 0.521 | 1.11 | 0.778 | 0.847 | 0.572
9 | KSLFHHRQYSA [CPS1_Y1491_Y1491H] | 0.618 | 0.613 | 0.341 | 0.573 | 1.04 | 0.491 | 0.563 | 0.412 | 0.439 | 0.547 | 0.519 | 0.488 | 0.555 | 0.472 | 0.504 | 0.478
10 | TFLRTYTDAMQ [TSPAN7_Y124] | 0.761 | 0.864 | 0.846 | 0.791 | 0.51 | 0.488 | 0.438 | 0.548 | 0.379 | 0.813 | 0.396 | 0.506 | 0.726 | 0.37 | 0.552 | 0.413
11 | CSRRLYQLTKL [AR_Y858_F857L] | 0.641 | 0.449 | 0.524 | 0.666 | 0.451 | 0.59 | 0.517 | 0.456 | 0.499 | 0.769 | 0.621 | 0.858 | 0.794 | 0.558 | 0.728 | 0.657
12 | ALDRPYTSKHS [NANS_Y71_E68D] | 0.926 | 0.613 | 0.485 | 0.612 | 0.364 | 0.508 | 0.379 | 0.566 | 0.474 | 0.638 | 0.499 | 0.489 | 0.636 | 0.448 | 0.637 | 0.542
13 | KHTLSFVDVGT [SDHA_Y629_Y629F] | 0.862 | 0.54 | 0.562 | 0.661 | 0.319 | 0.495 | 0.348 | 0.497 | 0.371 | 0.691 | 0.384 | 0.364 | 0.624 | 0.315 | 0.451 | 0.292
14 | VSYDEYRYRSV [CFTR_Y515] | 0.978 | 0.822 | 1.45 | 0.754 | 0.485 | 0.417 | 0.455 | 0.484 | 0.381 | 0.942 | 0.633 | 0.586 | 0.71 | 0.428 | 0.667 | 0.743
15 | LADKPYTFEFF [FXN_Y118_D122Y_YF] | 0.742 | 0.719 | 0.675 | 1.78 | 0.764 | 0.683 | 0.649 | 0.952 | 1.25 | 1.82 | 1.47 | 0.644 | 1.58 | 1.22 | 1.19 | 2.87
16 | EGQKIYIDDNN [PIP4K2A_Y246] | 0.699 | 0.696 | 0.416 | 1.04 | 0.586 | 0.539 | 0.584 | 0.667 | 0.484 | 1.15 | 0.568 | 0.548 | 0.984 | 0.412 | 0.74 | 0.467
17 | DDLEVYLKHLL [SACS_Y3477] | 0.752 | 0.605 | 0.544 | 1.03 | 0.505 | 0.503 | 0.479 | 0.697 | 0.653 | 0.97 | 0.482 | 0.58 | 0.822 | 0.409 | 0.61 | 0.558
18 | SVTCTYSPAIN [TP53_Y126_L130I] | 0.817 | 0.5 | 0.435 | 1.5 | 1 | 0.735 | 0.702 | 1.1 | 0.743 | 1.83 | 0.615 | 0.749 | 1.37 | 0.466 | 1.08 | 0.684
19 | HDHYGYRQSVT [CD55_Y245_R240H] | 0.895 | 0.833 | 0.654 | 0.801 | 0.4 | 0.713 | 0.695 | 0.623 | 0.743 | 1.06 | 0.94 | 0.969 | 1.06 | 0.883 | 0.622 | 0.538

The next lines start with results.

Row | SH2 binding enrichment (Grb2 SH2) | SH2 binding enrichment (SHP2-C SH2) | SH2 binding enrichment (c-Src SH2) | Sequence | phosphorylation enrichment (AncSZ) | phosphorylation enrichment (EPHB1) | phosphorylation enrichment (EPHB2) | phosphorylation enrichment (FGFR1) | phosphorylation enrichment (FGFR3) | phosphorylation enrichment (Fer (mouse)) | phosphorylation enrichment (Fes) | phosphorylation enrichment (Fyn) | phosphorylation enrichment (Hck) | phosphorylation enrichment (Jak2) | phosphorylation enrichment (MERTK) | phosphorylation enrichment (c-Abl (mouse)) | phosphorylation enrichment (c-Src)
20 | 2.13 | 1.76 | 2.99 | RPGSGYTNIMQ [PKLR_Y564_R569Q] | 0.775 | 0.61 | 0.484 | 0.763 | 0.517 | 0.466 | 0.834 | 0.469 | 0.548 | 0.463 | 0.524 | 0.549 | 0.597
21 | 0.781 | 0.685 | 0.519 | DRSSLYLVAGP [KIAA1614_Y1083_N1078D] | 1.25 | 0.709 | 0.833 | 0.593 | 0.665 | 0.615 | 1.13 | 0.523 | 0.842 | 1.08 | 1.33 | 0.652 | 0.749
22 | 0.938 | 0.706 | 0.557 | FSMGCYEIFLG [HMGCL_Y198_S201Y_YF] | 2.87 | 2.01 | 2.07 | 0.95 | 1.35 | 3.74 | 1.8 | 5.89 | 3.21 | 1.51 | 4.33 | 1.28 | 6.25
23 | 0.709 | 0.623 | 0.468 | VDLIVYLRTNP [TK2_Y181] | 1.12 | 0.65 | 0.589 | 0.358 | 0.711 | 0.432 | 1.26 | 0.434 | 0.352 | 1.06 | 0.328 | 0.875 | 0.364
24 | 0.876 | 0.473 | 0.472 | EEGENYQKGEQ [CHGB_Y173_R178Q] | 1.28 | 0.592 | 0.63 | 0.637 | 0.747 | 0.51 | 1.28 | 0.519 | 0.519 | 1.4 | 0.561 | 0.898 | 0.545
25 | 0.731 | 0.708 | 0.468 | ESDGAYIQRMQ [CCDC137_Y125_H127Q] | 0.687 | 0.474 | 0.496 | 0.385 | 0.54 | 0.417 | 0.772 | 0.423 | 0.446 | 0.985 | 0.43 | 0.599 | 0.456
26 | 1.23 | 1.78 | 1.79 | LNPFIYSLRNW [OR1A2_Y288] | 2.05 | 1.52 | 0.819 | 0.644 | 1.1 | 2.28 | 1.73 | 7.05 | 6.49 | 1.34 | 4.23 | 4.13 | 8.69
27 | 0.891 | 0.492 | 0.506 | PQIVNYSPDCI [LDHB_Y128_K127N] | 0.415 | 0.668 | 0.451 | 0.684 | 0.939 | 0.83 | 0.824 | 0.457 | 1 | 0.254 | 0.179 | 0.216 | 0.387
28 | 0.729 | 0.508 | 0.551 | PPAPRYHDSAV [LZTR1_Y119_H121D] | 0.73 | 0.658 | 0.476 | 0.532 | 0.711 | 0.448 | 0.877 | 0.861 | 0.684 | 0.979 | 0.741 | 0.743 | 0.728
29 | 0.681 | 0.838 | 0.409 | LDPDSYNKFEN [FOXC1_Y159_M161K] | 1.54 | 0.758 | 0.656 | 0.765 | 0.97 | 0.483 | 1.69 | 0.665 | 0.698 | 1.52 | 0.802 | 1.25 | 1.02
